Target: TubY C-terminal domain (BcYCΔ; residues 107-182) of pBc10987 from Bacillus cereus (Bacillus cereus (plasmid pBc10987))
Assay: crystal structure; Se-substituted BcYCΔ at 1.4 mM in 10 mM Tris pH 8.0, 0.1 M NaCl, 3 mM DTT; sitting drop, 20 °C, 0.1 M HEPES pH 7.5, 0.2 M MgCl2, 30% PEG400; 2.6 Å; four monomers in the asymmetric unit

“TubY C-terminal domain (BcYCΔ; residues 107-182) of pBc10987 from Bacillus cereus (domain or fragment)” showed a stoichiometry N of 4.
